According to article PMC9131872:

Target: African swine fever virus (ASFV) decapping enzyme g5R protein, recombinant wild type (residues 1 to 250) (African swine fever virus (ASFV)) (UniProt P32092)
Test: cross-linking

African swine fever virus (ASFV) decapping enzyme g5R protein, recombinant wild type (residues 1 to 250) (from UniProt P32092 1-250)
stoichiometry N: 2
